According to patent publication US20210122826A1 (MIT, published 2021):

What was measured:
Experiment in all cases: flow, Jurkat, 100 nM Ab
Human Clec10A = biological target: T1, Human Clec10A (human, UniProt Q8IUN9 1-316)
T1 construct: also called hClec10A
T1 sequence: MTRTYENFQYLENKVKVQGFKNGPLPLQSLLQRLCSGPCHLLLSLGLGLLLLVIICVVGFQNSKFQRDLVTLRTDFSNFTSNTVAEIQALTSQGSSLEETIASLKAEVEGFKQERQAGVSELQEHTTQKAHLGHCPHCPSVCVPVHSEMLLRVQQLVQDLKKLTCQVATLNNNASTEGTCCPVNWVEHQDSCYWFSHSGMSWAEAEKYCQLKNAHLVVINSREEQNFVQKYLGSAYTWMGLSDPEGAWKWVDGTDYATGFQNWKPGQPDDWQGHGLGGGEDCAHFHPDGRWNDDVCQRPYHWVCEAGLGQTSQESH

Human KLRG1 = biological target: T2, Human KLRG1 (human, UniProt Q96E93 1-195)
T2 construct: also called hKLRG1
T2 sequence: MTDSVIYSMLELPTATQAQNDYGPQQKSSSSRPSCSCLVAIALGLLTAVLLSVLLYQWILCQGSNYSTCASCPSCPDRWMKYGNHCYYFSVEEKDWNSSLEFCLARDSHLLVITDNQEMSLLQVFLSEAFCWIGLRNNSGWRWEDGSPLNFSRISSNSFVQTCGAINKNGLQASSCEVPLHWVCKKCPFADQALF

Human Clec7A = biological target: T3, Human Clec7A (human, UniProt Q9BXN2 1-247)
T3 construct: also called hClec7A
T3 sequence: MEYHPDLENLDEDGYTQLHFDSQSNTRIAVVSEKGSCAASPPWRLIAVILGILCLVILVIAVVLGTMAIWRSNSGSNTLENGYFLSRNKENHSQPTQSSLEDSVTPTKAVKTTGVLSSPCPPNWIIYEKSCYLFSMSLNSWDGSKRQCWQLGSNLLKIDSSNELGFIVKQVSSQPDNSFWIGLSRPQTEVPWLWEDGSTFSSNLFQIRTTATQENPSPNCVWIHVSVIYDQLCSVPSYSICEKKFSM

Human Clec9A = biological target: T4, Human Clec9A (human, UniProt Q6UXN8 1-241)
T4 construct: also called hClec9A

Human CD209 = biological target: T5, Human CD209 (human, UniProt Q9NNX6 1-404)
T5 construct: also called hCD209
T5 sequence: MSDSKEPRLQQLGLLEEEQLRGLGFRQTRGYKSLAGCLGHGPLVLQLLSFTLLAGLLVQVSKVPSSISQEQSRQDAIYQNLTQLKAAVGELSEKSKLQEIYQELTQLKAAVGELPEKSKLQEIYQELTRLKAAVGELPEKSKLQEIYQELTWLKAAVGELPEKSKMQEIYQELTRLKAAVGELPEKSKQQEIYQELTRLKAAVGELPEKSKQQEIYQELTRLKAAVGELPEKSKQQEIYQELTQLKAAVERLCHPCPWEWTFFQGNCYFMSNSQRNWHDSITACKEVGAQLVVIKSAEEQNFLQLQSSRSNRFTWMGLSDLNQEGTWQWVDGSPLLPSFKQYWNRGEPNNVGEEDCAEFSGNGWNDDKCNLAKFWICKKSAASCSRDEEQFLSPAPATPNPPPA

Human Clec12B = biological target: T6, Human Clec12B (human, UniProt Q2HXU8 1-276)
T6 construct: also called hClec12B
T6 sequence: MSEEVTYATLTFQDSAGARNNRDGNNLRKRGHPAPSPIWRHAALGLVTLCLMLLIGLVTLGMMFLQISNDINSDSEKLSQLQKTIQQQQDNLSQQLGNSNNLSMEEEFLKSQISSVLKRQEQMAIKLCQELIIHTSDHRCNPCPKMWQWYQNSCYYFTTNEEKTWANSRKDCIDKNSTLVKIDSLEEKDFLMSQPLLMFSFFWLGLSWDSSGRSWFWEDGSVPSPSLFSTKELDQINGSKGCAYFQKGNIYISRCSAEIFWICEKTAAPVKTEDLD

Human CD94 = biological target: T7, Human CD94 (human, UniProt Q13241 1-179)
T7 construct: also called hCD94
T7 sequence: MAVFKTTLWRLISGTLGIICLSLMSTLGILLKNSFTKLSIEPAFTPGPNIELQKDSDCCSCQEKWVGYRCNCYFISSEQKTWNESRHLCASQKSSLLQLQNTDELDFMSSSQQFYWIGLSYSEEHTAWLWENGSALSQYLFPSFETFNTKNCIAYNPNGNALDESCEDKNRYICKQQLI

Human Clec4E = biological target: T8, Human Clec4E (human, UniProt Q9ULY5 1-219)
T8 construct: also called hClec4E
T8 sequence: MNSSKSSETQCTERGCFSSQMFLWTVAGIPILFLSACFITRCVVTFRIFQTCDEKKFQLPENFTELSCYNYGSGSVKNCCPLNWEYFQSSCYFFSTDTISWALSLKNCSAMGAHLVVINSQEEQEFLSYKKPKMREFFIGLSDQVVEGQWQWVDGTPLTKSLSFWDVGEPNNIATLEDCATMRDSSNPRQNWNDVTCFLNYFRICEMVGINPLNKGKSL

Human KLRF2 = biological target: T9, Human KLRF2 (human, UniProt D3W0D1 1-207)
T9 construct: also called hKLRF2
T9 sequence: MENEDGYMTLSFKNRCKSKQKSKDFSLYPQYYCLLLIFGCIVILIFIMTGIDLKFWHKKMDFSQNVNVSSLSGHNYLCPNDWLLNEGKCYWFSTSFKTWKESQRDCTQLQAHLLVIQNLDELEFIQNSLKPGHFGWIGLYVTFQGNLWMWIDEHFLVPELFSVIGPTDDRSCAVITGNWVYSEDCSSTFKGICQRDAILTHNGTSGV

Human OLR1 = biological target: T10, Human OLR1 (human, UniProt P78380 1-273)
T10 construct: also called hOLR1

cynomolgus CD161 = biological target: T11, cynomolgus CD161 (cynomolgus)
T11 construct: UniProt A0A2K5WYI1; also called cynoCD161
T11 chain: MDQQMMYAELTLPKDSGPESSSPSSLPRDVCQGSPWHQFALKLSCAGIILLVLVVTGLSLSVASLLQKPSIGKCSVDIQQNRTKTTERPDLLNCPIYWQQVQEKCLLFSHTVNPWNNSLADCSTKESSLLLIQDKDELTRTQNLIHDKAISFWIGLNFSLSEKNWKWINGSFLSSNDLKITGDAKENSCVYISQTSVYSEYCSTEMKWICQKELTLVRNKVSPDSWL

T4 sequence (Q6UXN8 whole entry): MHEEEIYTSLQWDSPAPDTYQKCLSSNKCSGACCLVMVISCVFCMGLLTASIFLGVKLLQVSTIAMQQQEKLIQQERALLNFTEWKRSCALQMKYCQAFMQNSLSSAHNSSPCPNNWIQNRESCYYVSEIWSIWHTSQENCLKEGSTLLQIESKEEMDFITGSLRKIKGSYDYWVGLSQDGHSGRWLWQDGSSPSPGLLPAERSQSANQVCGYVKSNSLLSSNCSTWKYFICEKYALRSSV

B1: KW1.2.1 (antibody, V domains shown)
VH: EVQLVESGGGLVQPGGSLRLSCAASGSTFSSYAMSWVRQAPGKGLEWVSTISGSGGSTYYADSVKGRFTISRDNSRNTLYLQMNSLRAEDTAVYYCARGGLIPSGFDYWGQGTLVTVSS
VL: DIQMTQSPSSPSASVGDRVTITCRASQSISSYLNWYQQKPGKAPKLLIYAASSLLSGVPSRFSGSGSGTDFTLTISSLQPEDFATYYCQQTYSTPLTFGQGTKVEIK
MFI normalized to WT (Human Clec10A): 0.94
MFI normalized to WT (Human KLRG1): 1.24
MFI normalized to WT (Human Clec7A): 1.25
MFI normalized to WT (Human Clec9A): 1.24
MFI normalized to WT (Human CD209): 0.96
MFI normalized to WT (Human Clec12B): 1.11
MFI normalized to WT (Human CD94): 1.13
MFI normalized to WT (Human Clec4E): 0.99
MFI normalized to WT (Human KLRF2): 1.05
MFI normalized to WT (Human OLR1): 1.28
MFI normalized to WT (cynomolgus CD161): 103

B2: KM12.2.3 (antibody, human IgG1, V domains shown)
VH: EVQLVESGGGLVQPGGSLRLSCAASGFTFSSYAMSWIRQAPGKGLEWVSAISGSGGSIYYADSVKGRFTISRDNSKNTLYLQMNSLRAEDTAVYYCARGYSDSYFYGPYYTFDYWGQGTLVTVSS
VL: DIQMTQSPSSLSASVGDRVTITCRASQGISSYLNWYQQKPGKAPKLLIYAASSLQSGVSSRFSGSGSGTDFTLTISSLQPEDFATYYCQQSYNTPLTFGQGTKVEIK
MFI normalized to WT (Human Clec10A): 1.44
MFI normalized to WT (Human KLRG1): 1.42
MFI normalized to WT (Human Clec7A): 1.11
MFI normalized to WT (Human Clec9A): 1.42
MFI normalized to WT (Human CD209): 1.48
MFI normalized to WT (Human Clec12B): 1.33
MFI normalized to WT (Human CD94): 1.36
MFI normalized to WT (Human Clec4E): 1.68
MFI normalized to WT (Human KLRF2): 1.37
MFI normalized to WT (Human OLR1): 1.33
MFI normalized to WT (cynomolgus CD161): 11.9

B3: KW9.3.3 (antibody, V domains shown)
VH: EVQLVESGGGLVQPGGSLRLSCAASGFTFSSYAMSWVRQAPGKGLEWVSAISGSGGRTYYADSVKGRFTISRDNSKNTLYLQMNSLRAEDTAMYYCARGPGYMYLYGDSFFEYWGQGTLVTVSS
VL: DIQMAQSPSSLSASVGDRVTITCRASQGISSYLNWYQQKPGKAPKLLIYAASSLQSGVPSRFSGSGYGTDFTLTISSLQPEDFATYYCQQSYSTPLTFGQGTKVEIK
MFI normalized to WT (Human Clec10A): 0.86
MFI normalized to WT (Human KLRG1): 0.93
MFI normalized to WT (Human Clec7A): 1.03
MFI normalized to WT (Human Clec9A): 0.94
MFI normalized to WT (Human CD209): 0.81
MFI normalized to WT (Human Clec12B): 0.94
MFI normalized to WT (Human CD94): 0.84
MFI normalized to WT (Human Clec4E): 0.85
MFI normalized to WT (Human KLRF2): 0.9
MFI normalized to WT (Human OLR1): 0.9
MFI normalized to WT (cynomolgus CD161): 0.89

B4: KW7.2.2 (antibody, V domains shown)
VH: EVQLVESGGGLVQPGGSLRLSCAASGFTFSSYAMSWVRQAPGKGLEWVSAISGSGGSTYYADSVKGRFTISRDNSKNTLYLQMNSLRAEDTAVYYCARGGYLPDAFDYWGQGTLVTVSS
VL: DIQMTQSPSSLSASVGDRVTITCRASQSISSYLNWYQQKPGKAPRFLIYAASSLQSGVPSRFSGSGSGTDFTLTISSLQPEDFATYYCQQTYSTPLTFGQGTKVEIK
MFI normalized to WT (Human Clec10A): 0.9
MFI normalized to WT (Human KLRG1): 1.3
MFI normalized to WT (Human Clec7A): 1.46
MFI normalized to WT (Human Clec9A): 1.42
MFI normalized to WT (Human CD209): 1
MFI normalized to WT (Human Clec12B): 1.37
MFI normalized to WT (Human CD94): 1.29
MFI normalized to WT (Human Clec4E): 1.1
MFI normalized to WT (Human KLRF2): 1.12
MFI normalized to WT (Human OLR1): 1.42
MFI normalized to WT (cynomolgus CD161): 108
